Tests used:
Assay in all cases: filter binding
Conditions in all cases: Nitrocellulose filter binding, 0.5 ml, 37 C, 30-60 min, then agarose gel. Topo IV: 40 mM Tris-HCl pH 7.5, 6 mM MgCl2, 100 mM KOAc, 1 mM DTT, 0.1 mM EDTA
RecQ (Escherichia coli) = system: RecQ (Escherichia coli)
Tfam (human) = system: Tfam (human)
[1] = system: top1mt Y559F (mitochondrial topoisomerase I) (human)
[2] = system: Topo IV (ParC+ParE) (Escherichia coli)
[3] = system: ntop1 Y723F (nuclear topoisomerase I) (human)
EcoRV = system: EcoRV

Question: How did the binding signal (Ka ratio (reference dLk 0)) (RecQ (Escherichia coli)) turn out when “pBR322, relaxed closed circular (dLk 0; dLk -1 as reference for Topo IV and Tfam)” was run?
Answer: Its binding signal (Ka ratio (reference dLk 0)) is 1.

Question: And the binding signal (Ka ratio (reference dLk -1)) (Tfam (human))?
Answer: The binding signal (Ka ratio (reference dLk -1)) was 1.

Question: And the binding signal (Ka ratio (reference dLk 0)) [1]?
Answer: The binding signal (Ka ratio (reference dLk 0)) was 1.

Question: And the binding signal (Ka ratio (reference dLk -1)) [2]?
Answer: Its binding signal (Ka ratio (reference dLk -1)) is 1.

Question: And the binding signal (Ka ratio (reference dLk 0)) [3]?
Answer: Its binding signal (Ka ratio (reference dLk 0)) is 1.

Question: And the binding signal (Ka ratio (reference dLk 0)) (EcoRV)?
Answer: The binding signal (Ka ratio (reference dLk 0)) was 1.

Question: “pBR322, negatively supercoiled topoisomer dLk about -23 (unresolved band below -10)” was tested. Which binding signal (fold Ka vs relaxed) [2] did it give?
Answer: The binding signal (fold Ka vs relaxed) was 5.

Question: pBR322, nicked (open circular) was tested. Which binding signal (Ka nicked/Ka relaxed) ([3]; nick, position undefined) did it give?
Answer: Its binding signal (Ka nicked/Ka relaxed) is 8.6.

From publication PMC4402506
